Target: PKCα (Homo sapiens, UniProt P17252)
Assay: Kinetic parameters of the peptides with PKCα (continuous fluorescence assay)
Assay type: biochemical
Description: To solve for enzyme kinetic parameters for this reaction, determination of the initial rate of product formation from the increase in fluorescence intensity is necessary. With this sensor, a correction for the decrease in fluorescence intensity due to the starting material being consumed is needed to determine the rate of product formation from the initial slope. The fluorescence intensity at any given point can be determined from the following equation: I(t)=fSs(t)+fPP(t) (1) where I(t) is the fluorescence intensity, S(t) is the amount of substrate in μM, P(t) is the amount of product in μM, fS is the fluorescence intensity per μM of substrate, and fP is fluorescence intensity per μM of product. The amount of substrate and product at any given point are related by: S(t)+P(t)=S0 (2) where S0 is the initial amount of substrate. Substitution of (2) into (1) followed by rearrangement, yields:
[formula] The initial slope of the reaction, dI(t)/dt, was measured within the first 5% of substrate turnover. The constants fP and fS were calculated from the slope of a line of fluorescence intensity versus concentration of P and S, respectively. A linear fit of a Hanes plot ([S]/V vs. […]) was used to find Km and Vmax.
For in vitro applications, the concentration of kinase can range from about 0.5 nM to about 1 μM, typically not more than about 500 nM, and preferably not more than about 250 nM. The concentrations of sensor can vary, but usually ranges between about 0.01 μM to 0.1 mM. Adenosine 5′-triphosphate (ATP) is the preferred source of phosphate, in stock solutions of about 10-100 mM. Because most kinases have Km values for ATP in the range of about 10-150 μM, saturating concentrations of ATP are used to arrive at values of Km and Vmax for the substrates. For in vivo applications, when the sensor is internalized into a cell, sufficient kinases, Mg^2+ and phosphate sources exist in the cytosol. For in vivo sensing, a cellular internalization sequence can be included in the sensor design. Suitable cellular internalization sequences include Penetratins, HIV-Tat domains and poly-arginine sequences (Lindgren, M. et al. Trends Pharmacol. Sci. 2000, 21, 99-103; Wadia, J. S. et al. Curr Opin. Biotech. 2002, 13, 52-56; Carrigan, C. N. Analyt. Biochem. 2005, 341, 290-298).
For applications in which the kinase is dependent on cofactors, a source of cofactor is also included in the sample. For example, for PKC, sources of Ca^2+, phospholipid and diacylglycerol are needed.
Fluorescence experiments were performed on a Fluoromax 3 from Jobin Yvon. 5 nm emission and excitation slit widths were used. For all experiments, an excitation wavelength of 360 nm was used. Enzyme assays were performed by monitoring emission at 485 nm.

selectivity for PKCα (as determined by kinetic parameters, compared with PKCα-S1): much more selective for PKCα
Km (with PKCα): 0.12 ± 0.018 µM
Vmax (with PKCα): 2.2 ± 0.25 µmol/min/mg
Substance: Ac-RRR-C(Sox)-ASFRRKA-CONH2 [PKCα-S10(P10), Sox chemosensor with extended recognition domain for PKCα]

Reference: patent publication US8586570B2, “Sox-based kinase sensor” (Massachusetts Institute of Technology, priority 2006, dated 2013)
